Laboratory results published in paper PMC10782944 (Science immunology, 2023).

Tests used:
Assay in all cases: SPR
PHOX2B/HLA-A*24:02/β2m = PHOX2B/HLA-A*24:02/β2m (Homo sapiens, HLA-A*24:02, strain)
ATG2A/HLA-A*24:02 = ATG2A/HLA-A*24:02 (Homo sapiens, HLA-A*24:02, strain)
[1] = target: CNGB3 peptide/HLA-A*24:02 (Homo sapiens, HLA-A*24:02, strain)
GLB1 peptide/HLA-A*24:02 = GLB1 peptide/HLA-A*24:02 (Homo sapiens, HLA-A*24:02, strain)

B1: peptide-centric CAR (PC-CAR) 10LH, single-chain fragment variable (scFv) (scFv, V domains shown)
V domain 1: EVQLLESGGGLVQPGGSLRLSCAASGFTFDSYAMSWVRQAPGKGLEWVSAISGYGGSTYYADSVKGRFTISRDNSKNTLYLQMNSLRAEDTAVYYCAKYTYFLDAFDIWGQGTMVTVSS
V domain 2: QSVLTQPPSVSVSPGQTASITCSGDSLGNKYACWYQQKPGQSPVLVIYQDSKRPSGIPERFSGSNSGNTATLTISGTQAMDEADYYCQAWDSSRGYTVVFGTGTKVTVS
PHOX2B/HLA-A*24:02/β2m
  Kd: 0.011 µM
ATG2A/HLA-A*24:02
  Kd: 1 µM
[1]
  binding result: binds
GLB1 peptide/HLA-A*24:02
  binding result: binds
